Laboratory results from the supplement of paper PMC9233669.
This sample holds only a part of the variants without activity.

Assays:
[1] = system: biotinyl-Phe-oxazolone; assay: self-aminoacylation, catalytic enhancement (BFO) (fold over background); higher = more active; k-Seq, kA / k0A0; sequences stand for … in GGGAAUGGAUCCACAUCUACGAAUUC…UUCACUGCAGACUUGACGAAGCUG
Summary of the method: (§1)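 Working in 50 μL HEPES/NaCl/KCl/MgCl2/CaCl2 buffer with 5% acetonitrile at pH 6.9–7.0, mutagenized RNA pools (0.43 μM; 21-nt variable region) were reacted with 2–1250 μM of each biotinyl-aminoacyl-oxazolone for 90 minutes at room temperature. Streptavidin capture followed, with quantification by triplicate qPCR and Illumina sequencing. Catalytic enhancement is reported as median kA over the uncatalyzed rate, the low-activity peak of a bimodal Gaussian fit to the data.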

[2] = system: biotinyl-Ile-oxazolone; assay: self-aminoacylation, catalytic enhancement (BIO) (fold over background); higher = more active; k-Seq, kA / k0A0; sequences stand for … in GGGAAUGGAUCCACAUCUACGAAUUC…UUCACUGCAGACUUGACGAAGCUG
Summary of the method: as §1

[3] = system: biotinyl-Met-oxazolone; assay: self-aminoacylation, catalytic enhancement (BMO) (fold over background); higher = more active; k-Seq, kA / k0A0; sequences stand for … in GGGAAUGGAUCCACAUCUACGAAUUC…UUCACUGCAGACUUGACGAAGCUG
Summary of the method: as §1

[4] = system: biotinyl-Val-oxazolone; assay: self-aminoacylation, catalytic enhancement (BVO) (fold over background); higher = more active; k-Seq, kA / k0A0; sequences stand for … in GGGAAUGGAUCCACAUCUACGAAUUC…UUCACUGCAGACUUGACGAAGCUG
Summary of the method: as §1

[5] = system: biotinyl-Leu-oxazolone; assay: self-aminoacylation, catalytic enhancement (BLO) (fold over background); higher = more active; k-Seq, kA / k0A0; sequences stand for … in GGGAAUGGAUCCACAUCUACGAAUUC…UUCACUGCAGACUUGACGAAGCUG
Summary of the method: as §1

[6] = system: biotinyl-Trp-oxazolone; assay: self-aminoacylation, catalytic enhancement (BWO) (fold over background); higher = more active; k-Seq, kA / k0A0; sequences stand for … in GGGAAUGGAUCCACAUCUACGAAUUC…UUCACUGCAGACUUGACGAAGCUG
Summary of the method: as §1

| Sequence | self-aminoacylation [1] | self-aminoacylation [2] | self-aminoacylation [3] | self-aminoacylation [4] | self-aminoacylation [5] | self-aminoacylation [6] |
| --- | --- | --- | --- | --- | --- | --- |
| CCCCACUUCAAGCAUUCGGUC [Fam1B.1 aminoacylation ribozyme variant] | 10.9 | 2.65 | 2.61 | 3.06 | 2.48 | 5.46 |
| CCCCACUUCAAGCUAUCGGUC [Fam1B.1 aminoacylation ribozyme variant] | 2.16 | 1.42 | 1.05 | 1.71 | 1.12 | 2.01 |
| CCCCACUUCAAGGAAUCGGUC [Fam1B.1 aminoacylation ribozyme variant] | 11.3 | 2.4 | 2.33 | 2.15 | 2.62 | 13 |
| CCCCACUUCCAGCAAUCGGUC [Fam1B.1 aminoacylation ribozyme variant] | 1.79 | 2.18 | 1.78 | 2.48 | 2.35 | 2.16 |
| CCCCCCUUCAAGCAAUCGGUC [Fam1B.1 aminoacylation ribozyme variant] | 80.1 | 1.88 | 2 | 2.67 | 3.18 | 44.8 |
| CCGCACUUCAAGCAAACGGUC [Fam1B.1 aminoacylation ribozyme variant] | 0.946 | 0.937 | 0.724 | 1.3 | 0.684 | 1.04 |
| CCGCACUUCAAGCAACCGGUC [Fam1B.1 aminoacylation ribozyme variant] | 1.29 | 1.47 | 1.47 | 1.54 | 1.1 | 1.56 |
| CCGCACUUCAAGCAAGCGGUC [Fam1B.1 aminoacylation ribozyme variant] | 1.43 | 1.65 | 1.43 | 1.67 | 1.31 | 2 |
| CCGCACUUCAAGCAAUCGCUC [Fam1B.1 aminoacylation ribozyme variant] | 6.76 | 1.93 | 1.8 | 2.73 | 2.14 | 2.73 |
| CCGCACUUCAAGCAAUCGGGC [Fam1B.1 aminoacylation ribozyme variant] | 2.26 | 1.92 | 1.35 | 2.52 | 1.69 | 2.11 |
| CCGCACUUCAAGCUAUCGGUC [Fam1B.1 aminoacylation ribozyme variant] | 0.936 | 1.15 | 0.919 | 1.42 | 0.84 | 1.19 |
| CCGUUUGCUAAUAGUCGCAAG [Fam3.1 aminoacylation ribozyme variant] | 1.94 | 1.22 | 0.83 | 0.972 | 1.02 | 1.1 |
| CCUACCCUGGUCAUCGAGUGA [Fam2.1 aminoacylation ribozyme variant] | 49.8 | 3.88 | 6.64 | 4.14 | 7.58 | 9.17 |
| CCUCACCUAGGUCAUCGGGUG [Fam2.2 aminoacylation ribozyme variant] | 16.2 | 3.22 | 3.92 | 5.35 | 4.79 | 5.46 |
| CCUCACUUCAACCAAUCGGUC [Fam1B.1 aminoacylation ribozyme variant] | 57.5 | 1.28 | 1.35 | 1.27 | 1.84 | 27.6 |
| CCUCACUUCAAGCAAUAGGUC [Fam1B.1 aminoacylation ribozyme variant] | 1.26 | 0.573 | 0.468 | 0.592 | 0.553 | 0.622 |
| CCUCACUUCAAGCAAUCAGUC [Fam1B.1 aminoacylation ribozyme variant] | 21.2 | 0.781 | 0.83 | 0.921 | 1.01 | 6.56 |
| CCUCACUUCAAGCAAUCCGUC [Fam1B.1 aminoacylation ribozyme variant] | 1.94 | 0.935 | 0.613 | 0.873 | 0.736 | 0.756 |
| CCUCACUUCAAGCAAUCGUUC [Fam1B.1 aminoacylation ribozyme variant] | 1.29 | 0.664 | 0.473 | 0.637 | 0.604 | 0.754 |
| CCUCACUUCAAGCAUUCGGUC [Fam1B.1 aminoacylation ribozyme variant] | 1.36 | 1.3 | 1.14 | 1.43 | 1.16 | 1.37 |
| CCUCACUUCAAGCGAUCGGUC [Fam1B.1 aminoacylation ribozyme variant] | 2.38 | 1.19 | 1.27 | 1.29 | 1.53 | 2.72 |
| CCUCACUUCAAGUAAUCGGUC [Fam1B.1 aminoacylation ribozyme variant] | 14.2 | 1 | 0.949 | 0.821 | 1.17 | 8.32 |
| CGACACUGCAAGCAAUCGGUC [Fam1B.1 aminoacylation ribozyme variant] | 1.4 | 1.52 | 1.26 | 1.47 | 1.37 | 1.82 |
| CGACACUUCAAGCAAGCGGUC [Fam1B.1 aminoacylation ribozyme variant] | 0.837 | 1.09 | 1.27 | 0.939 | 1.23 | 1.21 |
| CGACACUUCAAGCAAUCAGUC [Fam1B.1 aminoacylation ribozyme variant] | 13.2 | 0.815 | 0.774 | 0.822 | 0.903 | 4.25 |
| CGACACUUCAAGCAAUCGCUC [Fam1B.1 aminoacylation ribozyme variant] | 2.06 | 2.1 | 1.64 | 1.96 | 2.26 | 2.2 |
